Source: patent US6838446B1, “Vector for expression of GPI-enzyme hybrid” (AstraZeneca AB, priority 1999, dated 2005)
Positions count from the first letter of the chain named.

B1: bacterial CPG2: purified, bacterially expressed CPG2 used as a standard (Sigma C4053) (protein, UniProt P06621 23-415, looked up)
Carboxypeptidase G2: ALAQKRDNVLFQAATDEQPAVIKTLEKLVNIETGTGDAEGIAAAGNFLEAELKNLGFTVTRSKSAGLVVGDNIVGKIKGRGGKNLLLMSHMDTVYLKGILAKAPFRVEGDKAYGPGIADDKGGNAVILHTLKLLKEYGVRDYGTITVLFNTDEEKGSFGSRDLIQEEAKLADYVLSFEPTSAGDEKLSLGTSGIAYVQVNITGKASHAGAAPELGVNALVEASDLVLRTMNIDDKAKNLRFNWTIAKAGNVSNIIPASATLNADVRYARNEDFDAAMKTLEERAQQKKLPEADVKVIVTRGRPAFNAGEGGKKLVDKAVAYYKEAGGTLGVEERTGGGTDAAYAALSGKPVIESLGLPGFGYHSDKAEYVDISAIPRRLYMAARLIMDLGAGK
B2: CPG2(Q3): CPG2 with asparagine at positions 222, 264 & 272 mutated to glutamine, secreted form (protein, UniProt P06621 23-415, looked up, variant N222Q N264Q N272Q)
Carboxypeptidase G2: B1 Carboxypeptidase G2 with N200Q, N242Q, N250Q
modifications: secreted form
notes: CPG2 with asparagine at positions 222, 264 & 272 mutated to glutamine, secreted form
B3: CPG2: carboxypeptidase G2 with kappa light chain secretory leader, unaltered glycosylation sites, expressed from mammalian cells (pNG3/RC/CPG2) (protein, UniProt P06621 23-415, looked up)
Carboxypeptidase G2: B1 Carboxypeptidase G2
modifications: kappa light chain secretory leader

Assays:
[1] = bacterially expressed standard (Sigma C4053); cited from earlier work
[2] = HPLC based CPG2 enzyme activity assay with CPG2 capture ELISA, supernatants of transiently transfected COS 7 cells; assay type: biochemical; details: for specific activity of unpurified protein in crude supernatant, expressed in presence of tunicamycin / specific activity of unpurified protein in crude supernatant: COS 7 transient plasmid expression; for specific activity of unpurified protein in crude supernatant, expressed in presence of tunicamycin: 10 μg/ml tunicamycin (unglycosylated protein); for specific activity of unpurified protein in crude supernatant: tunicamycin absent, for CPG2 the combined activity of three protein forms (glycosylated and unglycosylated)
Procedure: Transient tranfection of COS 7 cells can be achieved using a LIPOFECTIN™ based procedure. LIPOFECTIN™ Reagent (Gibco BRL Cat. No. 18292-011) is a 1:1 (w/w) liposome formulation of the cationic lipid DOTMA and DOPE in membrane filtered water. It binds spontaneously with DNA to form a lipid-DNA complex (Felgner et al., Proc. Natl. Acad Sci. USA (1987) 84, 7431. COS 7 cells are seeded into a 6 well plate a 2×10^5 cell/2 ml/well, from a subconfluent culture and incubated overnight at 37°, 5% CO2. A LIPOFECTIN™/serum free medium mix is made up containing 120 μl LIPOFECTIN™ plus 480 μl serum free medium and incubated at room temperature for 30 minutes. A DNA/serum free medium mix is prepared by mixing 12 μg DNA with 600 μl serum free medium. The LIPOFECTIN™/serum free medium mix is added to the DNA/serum free medium mix and left at room temperature for 15 mins. The cells are washed once with 2 ml serum free-medium, then 800 μl serum free media added plus 200 μl LIPOFECTIN™/DNA mix/well and incubated for 5 hours at 37°, 5% CO2. The LIPOFECIN™/DNA mix is removed from the cells and normal growth media added after which the cells are incubated for 48-72 hours at 37°, 5% CO2 when the supernatants are harvested.
COS 7 cells can also be transiently transfected in the presence of the glycosylation inhibitor tunicamycin. The transfection procedure is repeated as above, but after incubating for 5 hours at 37°, 5% CO2, 10 μg/ml tunicamycin (Sigma T7765) is added into the normal growth media.
(§1) For the CPG2 capture ELISA, 96 well plates precoated with goat anti-mouse IgG are used (PIERCE REACII-BIND™ 15134 plates). A second layer of mouse monoclonal anti-CPG2 diluted 1:800 in PBS/0.05% TWEEN™/BSA is added by overnight incubation at 4°. In between each binding step the plate is washed 3 times with PBS/0.05% TWEEN™. 100 μl test sample is added per well and doubling dilutions in PBS/0.05%TWEEN™ carried out across the plate. A fourth layer of rabbit polyclonal anti-CPG2 diluted 1:2500 in PBS/0.05% TWEEN™/2% BSA is added followed by a final layer of goat anit-rabbit IgG Horse Radish Peroxidase Labelled Antibody (DAKO PO448) diluted 1:1000 in PBS/0.05% TWEEN™/2% BSA. To detect binding, 100 μl per well of developing solution is added [one capsule of phosphate-citrate buffer (Sigma P4922) dissolved in 100 ml water to which is added one 30 mg tablet o-phenyldiamine dihydrochloride (Sigma P4812)] and the reaction stopped after 5 mins by adding 75 μl 2M H2SO4, and the absorbance read at 490 nm.
To measure CPG2 enzyme activity in cell supernatant samples at HPLC based CPG2 enzyme assay can be used. 125 βl cell supernatant is pulsed in a micro-centrifuge to remove cell debris and 375 μl fresh reaction buffer (PBS/0.2 mM ZnCl2) added. Upon addition of 100 μM methotrexate, a substrate for the CPG2 enzyme, the reaction is incubated at 37° for 1 hour. The reaction is stopped by the addition of 500 μl methanol/0.2% Trifluoroacetio acid. The 1 ml sample is placed in a capped vial and assayed using HPLC. An isocratic separation with a mobile phase containing: 60% Methanol/40%, 60 mM Ammonium formate/0.1% Trifluoroacetic acid is used with an S5SC×column (Hichrom). 60 μl of sample is injected and the absorbance at 300 nm measured over a total run time of 8 mins/sample giving expected retention times for methotrexate and metabolite of 3.9 and 5.6 respectively.
The two plasmids pNG3/RC/CPG2 and pNG3/RC/CPG2(Q3) (which encoded the glycosylatable and Q3 variant secretory forms of the CPG2 protein respectively) were transfected into COS-7 cells using the LIPOFECTIN™ transfection procedure. To confirm that the mutagenesis of CPG2 to CPG2(Q3) had removed all potential glycosylation sites, the two proteins were also expressed in the presence of the glycosylation inhibitor, tunicamycin. After 72 h of expression the cell supernatants were harvested for analysis. […]

[3] = HPLC based CPG2 enzyme activity assay with CPG2 capture ELISA, supernatants of adenovirally infected CHO K1 cells; assay type: biochemical; details: RAd infected CHO K1 cells, supernatant 48 hours after infection
Procedure: as §1
To measure CPG2 enzyme activity in cell supernatant samples at HPLC based CPG2 enzyme assay can be used. […] 60 μl of sample is injected and the absorbance at 300 nm measured over a total run time of 8 mins/sample giving expected retention times for methotrexate and metabolite of 3.9 and 5.6 respectively. […]

Row | Molecule | specific activity of purified bacterial CPG2 [1] | specific activity of unpurified protein in crude supernatant, expressed in presence of tunicamycin [2] | specific activity of unpurified protein in crude supernatant [2] | reduction of enzyme activity by mutagenesis of CPG2 to CPG2(Q3) ([2]; as printed: compared with bacterial expressed enzyme) | specific activity, fold lower than wild type bacterial enzyme ([2]; unpurified protein, COS 7 supernatant) | specific activity of virally expressed secretable enzyme [3]
1 | B1 | 500 units/mg | – | – | – | – | –
2 | B2 | – | 90-124 units/mg | 71-120 units/mg | 2 fold | approximately 5 fold | 180 units/mg
3 | B3 | – | 165-210 units/mg | 61-87 units/mg | – | – | 71 units/mg
